{"source": "patent US8586538B2", "about": "“Method of treating a patient suffering from a bleeding disorder comprising administering an antibody against the A3-C1 of FVIII” (Stichting Sanquin Bloedvoorziening, priority 2002, dated 2013)", "molecules": {"B1": {"name": "scFv KM41: scFv antibody fragment directed against FVIII region Arg^1803-Lys^1818 (protein)", "scFv": "QVQLLQSAADVKKPGASVKVSCTASGYIFTSYDIDWVRQATGQGLEWMGWMNPNSGNAGFAQKFKGRLTLTRDTSTSTAYMELRRLESEDTAVYYCARSTPHSYSGSGLPPTSDSWGQGTLVTVSSGGGGSGGGGSGGGGSEIVLTQSPGTLSLSPGERATLSCRASQSVSSSFLGWYQQKPGQAPRLLIYGASSRATGIPDRFSGSGSGTDFTLTISRLEPEDFAVYYCQQYGISPLTFGGGTKLEIKRAAAEQKLISEEDLNGAAHHHHHH"}}, "key": {"[1]": {"biological_target": "T1, FVIII/FV^1811-1818 chimera (Homo sapiens, UniProt P00451, E1830S/F1835V/K1832Y/K1837H/T1831S)", "T1 construct": "FVIII/FV^1811-1818 light chain chimera and wild-type FVIII light chain were purified employing Q-Sepharose chromatography; made in house; host or cells: murine fibroblasts (C127) cells", "T1 sequence (P00451 1668-2351 E1830S/T1831S/K1832Y/F1835V/K1837H limits assumed)": "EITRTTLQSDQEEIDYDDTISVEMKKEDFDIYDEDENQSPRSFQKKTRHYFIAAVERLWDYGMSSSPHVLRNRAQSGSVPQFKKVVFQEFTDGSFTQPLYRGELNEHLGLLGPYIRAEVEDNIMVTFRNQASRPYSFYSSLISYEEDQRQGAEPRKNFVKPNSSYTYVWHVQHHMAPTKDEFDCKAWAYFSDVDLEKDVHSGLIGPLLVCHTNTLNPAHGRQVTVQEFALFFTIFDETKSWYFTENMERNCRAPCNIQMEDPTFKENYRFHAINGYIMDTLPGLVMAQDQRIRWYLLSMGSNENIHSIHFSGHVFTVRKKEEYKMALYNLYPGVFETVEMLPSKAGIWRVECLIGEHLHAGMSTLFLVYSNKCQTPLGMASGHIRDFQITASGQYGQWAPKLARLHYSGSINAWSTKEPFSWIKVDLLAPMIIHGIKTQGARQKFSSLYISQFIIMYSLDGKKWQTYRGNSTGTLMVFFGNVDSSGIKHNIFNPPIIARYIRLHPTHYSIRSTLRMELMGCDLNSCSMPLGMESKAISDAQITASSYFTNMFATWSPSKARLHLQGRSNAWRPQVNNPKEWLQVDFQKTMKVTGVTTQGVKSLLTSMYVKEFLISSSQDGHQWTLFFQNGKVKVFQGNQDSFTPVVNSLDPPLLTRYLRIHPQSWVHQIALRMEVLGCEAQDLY", "assay": "SPR binding of scFv KM41 to FVIII/FV^1811-1818 light chain chimera", "settings": "scFv 40 nM", "method": "(§1) FIG. 7. Binding of scFv KM41 to the FVIII/FV^1811-1818 light chain chimera. ScFv EL14 at a CM5 sensor chip (67 fmol/mm^2) was incubated with either the recombinant wild-type FVIII light chain or the recombinant FVIII/FV^1811-1818 chimera till a density of 20 fmol/mm^2, in 150 mM NaCl, 50 mM Tris (pH 7.4). ScFv KM41 (40 nM) was passed over two separate channels with immobilized intact FVIII light chain (I) or FVIII/FV^1811-1818 chimera (II), respectively. Response is indicated as Resonance Units (RU) and is corrected for nonspecific binding.\n(§2) The kinetics of protein interactions was determined by surface plasmon resonance (SPR) analysis, employing a BIAcore™2000 biosensor system (Biacore AS, Uppsala, Sweden). […] Association of analyte was assessed in 150 mM NaCl, 2 mM CaCl2, 0.005% (v/v) Tween® 20, and 20 mM Hepes (pH 7.4) for 2 min, at a flow rate of 20 μl/min at 25° C. […] The association (kon) and dissociation (koff) rate constants were determined by using the BIAevaluation software 3.1 (Biacore AB, Uppsala, Sweden). […] Equilibrium dissociation constants (kd) were calculated from the ratio koff/kon. […]"}, "[2]": {"biological_target": "T2, wild-type recombinant FVIII light chain (Homo sapiens, UniProt P00451)", "T2 construct": "FVIII/FV^1811-1818 light chain chimera and wild-type FVIII light chain were purified employing Q-Sepharose chromatography; made in house; host or cells: murine fibroblasts (C127) cells", "T2 sequence (P00451 1668-2351 limits assumed)": "T1 sequence (P00451 1668-2351 E1830S/T1831S/K1832Y/F1835V/K1837H limits assumed) with S163E, S164T, Y165K, V168F, H170K", "assay": "SPR binding of scFv KM41 to wild-type recombinant FVIII light chain", "settings": "scFv 40 nM", "method": "as §1, §2"}}, "note": "Substitutions are numbered along the chain they refer to."}
{"molecule": "B1", "values": [{"measurement": "Binding of scFv to immobilized FVIII/FV^1811-1818 chimera", "setting": "[1]", "result": "did not recognize"}, {"measurement": "Binding of scFv to immobilized wild-type recombinant FVIII light chain", "setting": "[2]", "result": "readily reacted"}]}
